Results on two molecules are retold here after patent US20150098945A1 (Daiichi Sankyo, published 2015).

The target in assay [1] is T1, mouse ROBO4 (pCI-mROBO4-transfected HEK293 cells) (mouse, UniProt Q8C310 28-1012).
T1 sequence: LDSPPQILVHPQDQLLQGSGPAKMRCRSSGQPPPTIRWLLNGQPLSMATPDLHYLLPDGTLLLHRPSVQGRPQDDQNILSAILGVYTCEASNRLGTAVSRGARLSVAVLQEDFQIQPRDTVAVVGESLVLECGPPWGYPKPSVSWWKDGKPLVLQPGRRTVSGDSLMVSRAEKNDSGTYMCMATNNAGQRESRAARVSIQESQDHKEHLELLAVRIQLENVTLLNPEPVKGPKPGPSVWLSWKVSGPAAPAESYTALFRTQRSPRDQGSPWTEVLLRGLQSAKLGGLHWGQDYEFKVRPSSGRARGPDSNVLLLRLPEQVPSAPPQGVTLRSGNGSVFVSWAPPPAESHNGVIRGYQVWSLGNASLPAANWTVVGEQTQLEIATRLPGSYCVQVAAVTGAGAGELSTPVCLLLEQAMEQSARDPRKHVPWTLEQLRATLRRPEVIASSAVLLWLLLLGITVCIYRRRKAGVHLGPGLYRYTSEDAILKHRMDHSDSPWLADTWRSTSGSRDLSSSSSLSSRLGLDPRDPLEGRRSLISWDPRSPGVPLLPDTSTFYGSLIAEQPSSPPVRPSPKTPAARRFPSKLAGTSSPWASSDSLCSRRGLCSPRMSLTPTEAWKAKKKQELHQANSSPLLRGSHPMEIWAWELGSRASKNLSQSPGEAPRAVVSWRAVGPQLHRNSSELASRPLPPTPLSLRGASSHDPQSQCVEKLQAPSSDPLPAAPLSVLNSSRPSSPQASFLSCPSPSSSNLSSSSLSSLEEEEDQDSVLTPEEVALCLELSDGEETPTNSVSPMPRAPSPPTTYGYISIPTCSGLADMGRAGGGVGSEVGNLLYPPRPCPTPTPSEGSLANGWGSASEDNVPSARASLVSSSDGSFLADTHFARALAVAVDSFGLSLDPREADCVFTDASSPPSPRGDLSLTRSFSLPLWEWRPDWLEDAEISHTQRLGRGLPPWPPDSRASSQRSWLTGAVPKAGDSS
The assay is described as follows: flow cytometry (FC500), HEK293 cells transfected with pCI-mROBO4, FITC goat anti-human IgG Fc; control histogram IgG (human IgG). (A flow cytometer gives signals particle by particle.)

For assay [2], the target named is T2, N-terminal FLAG-tagged cynomolgus monkey ROBO4, cynoROBO4-2 (pCI-FLAG-cynoROBO4-2) (cynomolgus monkey, UniProt Q8WZ75 28-1007 (human entry)).
T2 chain: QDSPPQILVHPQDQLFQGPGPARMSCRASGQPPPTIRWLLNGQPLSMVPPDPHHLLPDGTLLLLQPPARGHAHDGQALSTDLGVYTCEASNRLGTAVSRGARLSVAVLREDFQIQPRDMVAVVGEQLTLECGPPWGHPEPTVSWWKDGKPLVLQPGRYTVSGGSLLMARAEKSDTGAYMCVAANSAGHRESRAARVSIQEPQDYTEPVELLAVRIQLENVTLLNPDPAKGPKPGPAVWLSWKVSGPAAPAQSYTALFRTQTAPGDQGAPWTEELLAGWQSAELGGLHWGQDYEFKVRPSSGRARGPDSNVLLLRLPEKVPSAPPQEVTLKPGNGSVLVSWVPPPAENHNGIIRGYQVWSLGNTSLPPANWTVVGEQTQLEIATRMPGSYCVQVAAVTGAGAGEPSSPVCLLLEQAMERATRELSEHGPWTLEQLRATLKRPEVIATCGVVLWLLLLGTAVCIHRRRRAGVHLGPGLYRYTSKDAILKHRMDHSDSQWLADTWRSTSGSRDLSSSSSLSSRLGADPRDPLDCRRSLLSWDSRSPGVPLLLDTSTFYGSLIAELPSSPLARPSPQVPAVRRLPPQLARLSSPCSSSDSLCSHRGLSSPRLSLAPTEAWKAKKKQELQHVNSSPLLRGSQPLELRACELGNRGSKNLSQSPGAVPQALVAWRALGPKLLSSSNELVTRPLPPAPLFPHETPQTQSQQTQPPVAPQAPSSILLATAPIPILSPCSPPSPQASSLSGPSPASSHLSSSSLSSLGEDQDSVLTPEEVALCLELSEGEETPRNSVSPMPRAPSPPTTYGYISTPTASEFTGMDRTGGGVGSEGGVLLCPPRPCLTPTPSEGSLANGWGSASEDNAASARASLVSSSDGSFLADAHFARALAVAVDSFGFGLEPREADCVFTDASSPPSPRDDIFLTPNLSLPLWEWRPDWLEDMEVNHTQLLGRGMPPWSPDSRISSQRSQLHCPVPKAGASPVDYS
The experiment in a line: flow cytometry (FC500), HEK293 cells transfected with pCI-FLAG-cynoROBO4-2, antibody at 10 µg/mL, FITC goat anti-human IgG Fc; control histogram IgG (human IgG).

B1: humanized MAb1 antibody H-1143 (antibody, human IgG2, kappa, V domains shown)
VH: EVQLVESGGGLVQPGGSLRLSCAASGFTFSTYAMSWVRQAPGKGLEWVATISQGGTYTYYPDSVKGRFTISRDNAKNTLYLQMNSLRAEDTAVYYCARLIYYDYLDYWGQGTLVTVSS
VL: DIVMTQSPLSLPVTLGEPASISCRSSQSLENENKNLYLNWYLQKPGQSPQLLIYRVSNRFSGVPDRFSGSGSGTDFTLKISRVEAEDVGVYYCLQVTHVPWTFGPGTKVDIKR
notes: Human IgG2 / kappa constant regions; also called hMAb1-H2-type heavy chain + hMAb1-L2-type light chain
On to B1, for which the binding result in assay [1] is “no binding (tested: 10 µg/mL)”.

B2: humanized MAb1 antibody H-2140 (antibody, human IgG2, kappa, V domains shown)
VH: EVQLVESGGGLVQPGGSLRLSCAASGFTFSTYAMSWVRQAPGKRLEWVATISQGGTYTYYPDSVKGRFTISRDNAKNTLYLQMNSLRAEDTAVYYCARLIYYDYLDYWGQGTLVTVSS
VL: DIVMTQSPLSLPVTLGEPASISCRSSQSLENSNGNTYLNWYLQKPGQSPQLLIYRVSNRFSGVPDRFSGSGSGTDFTLKISRVEAEDVGVYYCLQVTHVPWTFGPGTKVDIKR
notes: Human IgG2 / kappa constant regions; also called hMAb1-H4-type heavy chain + hMAb1-L1-type light chain
As to B2, the binding result in assay [2] is listed as “binds”.
